For 27 sequences, protein production results are on record in a protein production outcome set (Wang et al. 2014).

This data set can be described thus: label from the status in PepcDB records.
As to “MNNLFVYCEIEEGIVADVSLELLTKGRSLANELNCQLEAVVAGTGLKEIEKQILPYGVDKLHVFDAEGLYPYTSLPHTSILVNLFKEEQPQICLMGATVIGRDLGPRVSSALTSGLTADCTSLEIGDHEDKKEGKVYKNLLYQIRPAFGGNIVATIVNPEHRPQMATVREGVMKKEIVSPAYQGEVIRHDVKKYVADTDYVVKVIERH”, the protein production result is on record as “not failed”. The result for “MKTIHIYTNGRFEEKQSGIVREFPLVLHVNGREIATLISSPHDLRFLVAGFLRNQGFVERAEDFHMLAVCDDFGIANARIRGELPERLKPVLTSGCGTGVTFTLETPKIPPPLALPAITTDAVFRLMEELARRADNYRSHGGIHSAAVGDGEGNLLLFAEDIGRHNTLDRIAGEALFKGIDLAGTILVTSGRVSTEMAAKCARLGIALIASRTSATDMAVKMCDEAGIPLIGYVRGGKFTVYAHHERLAMAPPVGAIHELPLPASAQGRRIPGITGVILAGGQSRRMGSNKALLPYKGGRFIEAIHRQLAEIFDEVLLVTNNPEQYDFLPCRKVADIHPGMGALAGIHAGLHHAANPAAFMVACDMPYLNSDLIRHLATLADPGGVLIPESPAGLEPLHAVYGKGCLAAIETTLLSGERRIVSFFGRTNVNRVNAEQVALFDPDYATFSNINTPVDYYRLRDGERDELDAALGADRIAGLEHHHHHH” reads “failed”; that for “MLLNEIPWTIPLTVRLSNGLTHTFASVYEALDFLENEWPLRKGERYERAVRTCRRALNRMTPAAVAREAFIAACLEAGMPLVMAPPAREPQGDTVKAAHTA”, “not failed”. Consider “MRFSRARTEEVLRALVHEIRAERLTFMAGSIAYHAFLSILPLLLLVLTFVQRTENVTLRASIVGIMEAVLTTQASGIIQQGLTEADASVSALGVGFLLWGSLRIFRGLDTAFSDIYETGASNTFLDQLGDGLVLLVTVAVAILSASALGSVLPETGSGPLWTVASGLVRAAGLFVVFYPMYYIFPDTDVSPLEAVPGVAFAAIGLTVAQVLFTAFKSGSTGGNIIASILVLLSWLYIIGLVILLGAAINAVLSNRSADVDIDPVVGEHSQQNTIRTTTMSREALLAELETLADRFQQGQGTITVEIADERTDIDCPETATVDRSSDVFGLDQSVALTLRWWPNEK”, for which the protein production result is recorded as “failed”.

For the sequence “MNFEAIKSIYLFEMARTRRTLLQSVVSPVISTSLYFIVFGTAIGSRIQEVGGVSYGAFITPGLIMLTLLTQCISNGSFGIYFPKFTGTVYEILSAPVSMTEIVAGYVGAAATKGLMIGTIILITASFFVDITIAHPFMMVLFFVLTAVSFSLFGFIIGIWATNFEQLNLIPMLVVPPLTFLGGSFYSIDMLPPFWQTVSHFNPVLYLISGFRWSFYEIADVNPVISLAMITLFLAVCLGVVAWMFKTGYRLRN”, the protein production result was “failed”. Take “YDDEDYQAEQDRREEQRRAAIAQTGVEVIPVHGVLVSRGSHLNACETMTSYEGLRAALNKAITDPMVEHIVLDIDSPGGSAVGAFELAADIRAATKIKPITGLVNFMAYSGGYLIASACTEVVVSLTSGVGSIGVVASHMDRSKMIEGMGVKVTTVFAGAHKNDLSPNEPITEQSLQVLNEVVQESYQLFTTHVAEYRGRDVADIIATEAACYRGSSAIAIGLADRLESPQ”: the protein production entry is reported as “failed”. The result for “MSGHDHGDDGVNRRKVLECMTWAGTGVLWTITGGVPRSLGIIDSAQAATAAAPGMTFLQISDSHVGFDKPANPNALGTLEEAINKINAMPAKPSFMIHTGDITHLSKAAEFDNAERIISQTKLDVHYVPGEHDFIDEEVKLYRERYGRGTKGHGWYSFDAGGVHFVGLVNVVDLKAGGLGNLGAEQLAWLEDDLRGKSKSTPVVLFAHIPLWTVYPEWGWGTEDGGRALEYVKGFGSVTVLNGHIHQVMQKVEGNVTFHTARSTAFPQPAPGAAPSPGPMKVEDARLRSMLGVASINFKQNEQRLAIIDTPLQG” reads “failed”. With “MIRLPRAGTVLAVRGTAARSRRRLSTMARMPDTNTTDLWERRTQGPLLALAVLFAVAYALPVVMPDAPEQLLFACHVANWVVWAAFAIDYAVRLWLSEDRLRFVRSHPLALLAVLLPLLRPLRLLKLVSMLLLAGQRARMASQVRVTTYVAGSCLGLLVFGALAVLEVERGRPGASIQTLGDALWWAFTTMTTVGYGDMAPTTGLGRLLAIGLMLSGIALLGVVTANIAAWFISRFERDDAEERRQTAAIEALTEEVRALRAQVATLRAPQGAPSELNVLPAPTREHD”, the protein production result was “failed”. Regarding “MNIEEFTSGLAEKGISLSPRQLEQFELYYDMLVEWNEKINLTSITEKKEVYLKHFYDSITAAFYVDFNQVNTICDVGAGAGFPSLPIKICFPHLHVTIVDSLNKRITFLEKLSEALQLENTTFCHDRAETFGQRKDVRESYDIVTARAVARLSVLSELCLPLVKKNGLFVALKAASAEEELNAGKKAITTLGGELENIHSFKLPIEESDRNIMVIRKIKNTPKKYPRKPGTPNKSPIEG”, the protein production result is listed as “not failed”. To “MLGYLLLYMIFGGILLAYGSDWFIEGSTRVAKHFNVSNFVIGATIVAFGTSLPEIVTSSGAALSGSPGLAVGNAIGSCIANIGIILGISVLMYPLIIKKRAIIKNGNIYLIATILLVILGYNGFSRFDGLILFLFMIIYVIYTIKTSESDEEEIISDITVKKASIFIVVGLLAVILGSDLFIGGAKGIAEYFNVPESIIGFSLVAFGTSLPELASSVAAAKRKLGSIVLGNVIGSNIANTCVALSFSAMIVDIPKYNVELMVNTIMALLIIFTMNREKIKKMLNFKNFRTDYFSKIDRIDGISYILIYLIFLAYLLGYIF” belongs “failed”. To “CDLERYPLTDLSEETFWNSESNAELALTSLYRGSLTDGVEYNPSDWWSYHGMIMMEHLSDNAFDRRGENNPFFKISSGNLTADNAFIKRYWETSYKRIGYCNRFLVGIQNSSESEKKTRMIAEARFLRATQYFYLASYFKNVPLVENVLTGEEANNVTKTSQADILKWCVTEFTAAAADLPRFSAIPAGEAGRACKQAALAFLGRTCMLQKDWKSGAKAFHDIMELGDNAINANYQELFYPSTGTSNKENIFYIQYLENYLGTGLPQHALSAKDGGWSLVNPAADLYESYEFKDGTPFSYDDPRYDPSNLGKDRDPRLDYTIYYNGAIFMGTEYKMSPDYSAAKKEKLDYTSEASRTGFMMRKYFEESTPINDVQSANGLTPVIRYAEVLLGYLECLVEDNQTITQGILDETINAVRGRASVNMPPVTEVTPAKLREIVRHERRIELAMEGIRYWDIMRWGIAHEVLSQKIWGAPYPGSTQYATTTKEVDPTGNYRWYVGKRAFRNPTDYTWPIPQSEQNINPNLRD” belongs “not failed”; to “MEKNRRGIQSVELGSRVLQALAQFGRPAGLTELAQECDMPPGKVHPYLVSFMKVGFVARDPASGLYELGHLALELGLAKLHRLDPVREASQAIADLAAETGHGTGLVVWGNLGPTLIRLEEPAHPLHVNLRIGTVMSLVHTATGRLFAAYLPAKVVSRVLEADPMGVHFGSRHQSRPAQEDYERQLSEIRSRGISRTLGSPIPGIDAFCAPVFDSMGHIAAGLLVMGPSATFDSDWDGQIATRLHACANDISRKLGYIDTPASPRAAR”, “failed”. For “MIYLFLALLSYACTYCLVGLLIQGQLADVAEGLRHRPDAPTPGEYLREVGPRARQARRQYTLIAGSVLAVLACLIASGFG”, the protein production entry is “failed”.

In the case of “EMEEREIINNVFEFGDMQAKNAMVQRIDMVAIDMEDSYDEIIQVFKTEKLSRMPVYEETIDDIVGILNIKDIIFLSDEEIESFDIKNYMREPFFTYEFKKITQLLEEMKLEKSQMAIVVDEYGGTSGLLTIEDLVEVIVGDIE”, the protein production result is listed as “not failed”. To “MQNTTHDNVILELTVRNHPGVMTHVCGLFARRAFNVEGILCLPIQDSDKSHIWLLVNDDQRLEQMISQIDKLEDVVKVQRNQSDPTMFNKIAVFFQ” belongs “failed”. To “SSRRRRIVAAARDYVLAHRSRPVGVPELCEQLHVSRRTLQYCFQDVLGMAPATYLRALRLNGVRRDLRGRAADSVQDVAAAWGFWHLSQFATDYRRMFGARPSETLRGALA” belongs “failed”. Consider “MSKKIFAALIVAVVATFAGYNIYQSQRAEMEMSDLAMANIEALANDGESSTETTWSCKGTVGTCGAKCGLCGTTIPKSKGTLTGSHKCSM”, for which the protein production result is “failed”. Regarding “LAELFEKAAAHLQGLIQVASREQLLYLYARYKQVKVGNCNTPKPSFFDFEGKQKWEAWKALGDSSPSQAMQEYIAVVKKLDPGWNPQIPEKKGKEA”, the protein production result is on record as “not failed”. The result for “MKKYFITIMILLFGTLILAACQNSDEADNYEPPKVDLKDQIPIILIHGSGGNASSLDKMADQLMNEYRSSNEALTMTVNSEGKIKFEGKLTKDAKRPIIKFGFEQNQATPDDWSKWLKIAMEDLKSRYGFTQMDGVGHSNGGLALTYYAEDYAGDKTVPTLRKLVAIGSPFNDLDPNDNGMDLSFKKLPNSTPQMDYFIKNQTEVSPDLEVLAIAGELSEDNPTDGIVPTISSLATRLFMPGSAKAYIEDIQVGEDAVHQTLHETPKSIEKTYWFLEKFKTDETVIQLDYK” reads “failed”; that for “MPEYSSVTGLEGVKFAPLKKENGFYVATKIIDYPYAINAKVNTETSTEKQYADNKLVDMAVTTGSTKLELEMRDLPMEILEELFGIEETDGIYMFKKNVIAPWVAMSFYGPKANGKNRHVGLVKGRFSLPDDEWKTKEEKTDFQTVKLSAEFMEREQDNAYKVLADEDAPNFNLDKFYEKVFGNAYKNPLEHHHHHH”, “not failed”; that for “MITTRTARQCGQADYGWLQARYTFSFGHYFDPKLLGYASLRVLNQEVLAPGAAFQPRTYPKVDILNVILDGEAEYRDSEGNHVQASAGEALLLSTQPGVSYSEHNLSKDKPLTRMQLWLDACPQRENPLIQKLALNMGKQQLIASPEGAMGSLQLRQQVWLHHIVLDKGESANFQLHGPRAYLQSIHGKFHALTHHEEKAALTCGDGAFIRDEANITLVADSPLRALLIDLPV”, “not failed”.

Turning to “MKLLVVDDSSTMRRIIKNTLSRLGYEDVLEAEHGVEAWEKLDANADTKVLITDWNMPEMNGLDLVKKVRSDSRFKEIPIIMITTEGGKAEVITALKAGVNNYIVKPFTPQVLKEKLEVVLGTND”, the protein production result was “failed”. Consider “YNFSFLSPQGLSFASQGPSAPFWSVFTPRVIGTAVARYNFAARDMRELSLREGDVVRIYSRIGGDQGWWKGETNGRIGWFPSTYVEEEGIQ”, for which the protein production result is recorded as “failed”. To “MEQLQVGQVTLTWLNGGVTHLDGGAMFGVVPKPLWSKKYPPNDQNQIELRTDPILVEAGGKRLLIESGIGNGKLTDKQKRNFGVTEESSLDESLAALGLTRGDIDIVIMTHLHFDHACGLTVWEDGRLVPAFPRAAIITSDVEWEEMRAPNIRSRNTYWKENWEPIAEQVIPFTKETEVVSGIRLIHTGGHSAGHAIVLIESDGEMAIHLGDLLGTHAHQNVLWVMAYDDYPMDSIFAKQRWLPYGIERNAWFTFYHDAYYRAVKWREDGTIAEQVKRNRPTLLEHHHHHH” belongs “not failed”. On to “MQAIAIDQFSEPEETQVEQVENPDRNEAGYEVCNQSGENLSVAIAYFDTSIDSYRSEGWWNLDQSKCQFFPNLLDSVDEVYVFAESDQTLWSGDFPFCMQEDAFEYPDANRDRCPSPAYSKGFLKVEVGDAKTWTTNLTPSQLEHHHHHH”, for which the protein production entry was “failed”. In the case of “MLGGTAPKIAKAYQKTLTTNLNDVKNRLKDVTFKPKVLHFVNATNLNQVDGTGTIVNEWIKAAGGQNALKQKGNMISVTTETLAKSDPDVIIVGSATTAEARAALKKNAVLSKLTAVKKNRVYGNPQGTFPWDRYSAEEALQVLWAAKKLHPDQFQLEHHHHHH”, the protein production entry was “not failed”. On to “MAQINFEGLRELHDCVNYLLHHCPKTRESLSQQGQEKWTEQVSEASLRMLDICNVSKDVMTLVKHSLQDLQLTLRGNESSDVNEKIAAYNRYKNKLKKETLKCLNCLKNMKGNEGRVAMPIEQNLLFVTEVLKEVRRVVVTMVESLFSLGCIPWLEKRSSKGSLSSIFSIRSSYLLDDEWDETAVQSATTRLEAAEITVVELEIELESIFRRLIQTRVSLLNILTN”, for which the protein production entry is on record as “failed”.
